In patent publication EP0638644A1:

Tests used:
[1] = biological target: soluble complex of ¹²⁵I-IL-12 crosslinked to human IL-12R (human) (UniProt P29459); assay: immunoprecipitation of solubilized 125I-IL-12/IL-12R complex by immobilized control antibody (background)
[2] = biological target: recombinant human IL-12 receptor (clone No. 5, SEQ ID NO:2) expressed in COS cells (human); assay: equilibrium binding of labelled murine IL-12 to COS cells expressing clone 5, Scatchard, single site (Figure 19B)

Chain of soluble complex of ¹²⁵I-IL-12 crosslinked to human IL-12R (human) (P29459 23-219, form in doubt, chain 1 of 3, other chains not shown): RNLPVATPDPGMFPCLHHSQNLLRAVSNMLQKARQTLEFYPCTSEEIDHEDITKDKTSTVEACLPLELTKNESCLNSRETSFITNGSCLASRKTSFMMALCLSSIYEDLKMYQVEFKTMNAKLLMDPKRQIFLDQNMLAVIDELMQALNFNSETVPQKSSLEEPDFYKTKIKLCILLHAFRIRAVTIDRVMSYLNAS
Chain of soluble complex of ¹²⁵I-IL-12 crosslinked to human IL-12R (human) (P29460 23-328, form in doubt, chain 2 of 3, other chains not shown, further chain): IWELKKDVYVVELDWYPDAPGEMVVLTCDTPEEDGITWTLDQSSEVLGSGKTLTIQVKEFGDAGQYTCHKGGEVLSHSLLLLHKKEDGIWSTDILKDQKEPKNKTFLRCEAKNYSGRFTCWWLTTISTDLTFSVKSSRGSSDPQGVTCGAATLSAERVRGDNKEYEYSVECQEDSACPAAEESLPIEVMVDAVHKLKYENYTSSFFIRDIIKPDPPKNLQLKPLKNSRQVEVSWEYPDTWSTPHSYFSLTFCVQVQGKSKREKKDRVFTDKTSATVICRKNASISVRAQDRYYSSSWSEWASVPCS

I.P. ASSAY (cpm bound) [1]	Kd [2]	Substance
402 cpm	–	Control mAb (Table 1) (antibody)
–	2.1 nM	Recombinant murine IL-12 (from UniProt P43431 23-215; P43432 23-335) (ligand)
